In US20070129307A1, “Insulin epitopes for the treatment of type 1 diabetes” (The University of British Columbia, priority 2001, published 2007):

T1: murine MHC class I molecule, H-2Kd (mouse)
T1 chain 1: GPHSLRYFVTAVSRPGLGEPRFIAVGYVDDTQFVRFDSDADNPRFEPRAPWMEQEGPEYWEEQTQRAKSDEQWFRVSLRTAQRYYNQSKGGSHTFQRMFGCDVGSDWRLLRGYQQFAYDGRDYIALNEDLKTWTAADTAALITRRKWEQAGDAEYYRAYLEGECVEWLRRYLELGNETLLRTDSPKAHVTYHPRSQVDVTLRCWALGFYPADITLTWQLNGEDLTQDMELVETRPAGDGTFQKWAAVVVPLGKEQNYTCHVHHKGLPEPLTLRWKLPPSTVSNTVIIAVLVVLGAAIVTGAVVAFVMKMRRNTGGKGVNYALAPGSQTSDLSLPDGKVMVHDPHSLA
T1 chain 2: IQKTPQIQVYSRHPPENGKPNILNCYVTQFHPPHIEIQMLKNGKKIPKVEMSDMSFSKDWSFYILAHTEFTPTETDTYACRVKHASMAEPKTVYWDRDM


Experiments:
[1] = biological target: T1, murine MHC class I molecule, H-2Kd …; assay: MHC class I stabilization assay on TAP-deficient RMAS-Kd cells, anti-H-2Kd-FITC, flow cytometry (background without peptide 6.07%)
[2] = biological target: human MHC class I molecule HLA-A*0201 (human); assay: HLA-A2 stabilization on T2 cells loaded with 50 ug/ml peptide, anti-HLA-A2 (BB7.2) flow cytometry, MFI relative to CMV/A2

% of RMAS-Kd cells staining positive for surface H-2Kd [1] [%] | relative HLA-A2 surface expression (% of CMV/A2 peptide binding) [2] [%] | Binder
73.7 | – | LYLVCGERG (modifications not checked) [INSL]
72.7 | – | KYNKANVFL (modifications not checked) [NRP-V7]
– | > 80 | DLMGYIPLV (modifications not checked) [HCV peptide]
